The source of these data is publication PMC3549669 (Science signaling, 2012).

The data set “SEC” concerns the molecule itself. The experiment in a line: SEC. On the technique in general: Size exclusion chromatography separates by hydrodynamic size, large species first.
The next data set concerns the target T1, GST-TBK1 (human, UniProt Q9UHD2 1-729).
T1 sequence (looked up): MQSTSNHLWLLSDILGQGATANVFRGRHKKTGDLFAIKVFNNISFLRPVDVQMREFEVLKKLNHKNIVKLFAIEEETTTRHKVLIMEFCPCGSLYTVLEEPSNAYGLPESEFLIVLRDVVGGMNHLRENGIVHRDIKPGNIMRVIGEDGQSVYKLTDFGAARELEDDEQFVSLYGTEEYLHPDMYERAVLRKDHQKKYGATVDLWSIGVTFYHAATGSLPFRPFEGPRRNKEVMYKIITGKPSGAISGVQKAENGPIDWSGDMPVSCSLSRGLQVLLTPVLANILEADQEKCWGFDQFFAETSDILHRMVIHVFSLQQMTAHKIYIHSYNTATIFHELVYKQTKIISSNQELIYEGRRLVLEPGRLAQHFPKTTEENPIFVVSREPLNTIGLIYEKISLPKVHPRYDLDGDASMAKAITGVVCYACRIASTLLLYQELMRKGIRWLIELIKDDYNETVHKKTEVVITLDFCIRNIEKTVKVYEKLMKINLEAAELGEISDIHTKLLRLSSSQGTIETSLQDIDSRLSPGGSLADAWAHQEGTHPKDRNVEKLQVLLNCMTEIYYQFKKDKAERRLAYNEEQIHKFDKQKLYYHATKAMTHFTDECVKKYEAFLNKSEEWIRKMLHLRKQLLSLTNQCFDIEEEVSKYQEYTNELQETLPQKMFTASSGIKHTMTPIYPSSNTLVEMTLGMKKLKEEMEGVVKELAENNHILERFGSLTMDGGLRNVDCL
The experiment in a line: pull-down.

Another data set concerns the target T2, Flag-TBK1 (human, UniProt Q9UHD2 1-729).
T2 sequence (looked up): T1 sequence (looked up)
The experiment in a line: pull-down.

Consider VTVGSLKTSAVPSTSTMSQEPELLISGMEKPLPLRTDFS (domain or fragment, human, UniProt Q86WV6 341-379, looked up) [His6-STING (341–379)], for which the binding result in the data set “SEC” and with GST-TBK1 was “binds” each time.
In the case of VTVGSLKTSAVPSTSTMSQEPELLIAGMEKPLPLRTDFS (domain or fragment, human, UniProt Q86WV6 341-379, looked up) [His6-STING (341–379) S366A], the binding result in the data set “SEC” is on record as “binds”.
Turning to VTVGSLKTSAVPSTSTMAQEPELLISGMEKPLPLRTDFS (domain or fragment, human, UniProt Q86WV6 341-379, looked up) [GST-STING (341–379) S358A], the binding result in the data set with Flag-TBK1 is on record as “binds”.
As for VTVGSLKTSAVPSTSTMSQEPELLISGMEKPLPARTDFS (domain or fragment, human, UniProt Q86WV6 341-379, looked up) [GST-STING (341–379) L374A], in the data set with Flag-TBK1, the binding result is listed as “binds”.
On the same count and under the same terms, as for VTVGSLKTSAVPSTSTMSQEPELLISGMEKPLPLRTDFS (domain or fragment, human, UniProt Q86WV6 341-379, looked up) [GST-STING (341–379)], the entry is “binds”.
For the molecule VTVGSLKTSAVPSTSTMSQEPELLISGMEKPLPARTDFS (domain or fragment, human, UniProt Q86WV6 341-379, looked up) [His6-STING (341–379) L374A], in the data set “SEC”, the binding result is reported as “binds”.
As to VTVGSLKTSAVPSTSTMSQEPELLIAGMEKPLPLRTDFS (domain or fragment, human, UniProt Q86WV6 341-379, looked up) [GST-STING (341–379) S366A], the binding result with Flag-TBK1 was “binds”.
